Non-standard residues stand in square brackets, D forms with d. No end group written: not given here. *: point of attachment. Myristoyl = CCCCCCCCCCCCCC(=O)*; Aad = N[C@@H](CCCC(=O)O)C(=O)O; Acryloyl = C=CC(=O)*
Molecular target: T1, albumin in human serum (Homo sapiens, UniProt P02768)
T1 construct: tissue Sigma Aldrich; host or cells: human serum
Experiment: Conjugation to serum-borne HSA in human serum, SDS-PAGE fluorescence and Coomassie Blue
Assay type: biochemical
Description: Protein SDS-PAGE gels were exposed at green channel (Exc.=490 nm, Emm.=525 nm), then stained by Coomassie Blue.
To 100 μl human serum was added 10 μl FC-LYL1 or 10 μl FC-Mal stock solution (1 mM). The albumin content in serum is presumed to be 600 μM for healthy donors. The final concentrations of albumin and FC-labeled reactive probes in the reaction mixture are calculated to be 545 µM and 91 μM, respectively. The serum/ligands mixture was incubated at 37° C. in dark. The conjugation reactions were setup every 3 days, and […] conjugation reactions were setup in total for 3 weeks. The serum mixtures were subjected to electrophoresis and Coommassie Blue Staining without further treatment. Since albumin to probe ratio was about 6:1 and there are 5 known fatty acid binding sites on each albumin molecule, fatty acid binding site:probe ratio was over […]. We therefore believe significant portion of the reactive probes would be sequestered in the “non-productive” (no covalent ligation) fatty acid binding sites most of the time.

## FC-LYL1: FITC-tagged LYL1 (Myristoyl-[dE]DK(Acryloyl)[dS][Aad]; not fully specified (C-terminus); also: FITC on amino group of C-terminal lysine)
545 μM albumin, 91 μM probe, 37° C.
  reaction speed in human serum: slow reaction over days
Human serum, SDS-PAGE green channel
  selectivity of protein labeling in serum: can selectively label albumin content
